{
  "source": "patent US20050084876A1",
  "about": "(APOXIS SA FORMERLY APOTECH RESEARCH AND DEVELOPMENT LTD A …, published 2005)",
  "binders": {"B1": {"name": "myc-marked cytoplasmic protein segment of the CD95 (Fas) death receptor (receptor, murine, UniProt P25446 187-327, looked up, not shown: small tags and cut ends)", "chain": "RKYRKRKCWKRRQDDPESRTSSRETIPMNASNLSLSKYIPRIAEDMTIQEAKKFARENNIKEGKIDEIMHDSIQDTAEQKVQLLLCWYQSHGKSDAYQDLIKGLKKAECRRTLDKFQDMVQKDLGKSTPDTGNENEGQCLE", "notes": "range 166-306; also called myc-CD95; my-CD95"}, "B2": {"name": "Flag-marked E8 protein (viral FLIP, ORF E8 of equine herpes virus 2, EHV-2) (other, equine herpes virus 2 (EHV-2))", "chain": "DYKDDDDKMSHYSMIDTYFSLDEDETETYLYLCRDLLKNKGEFQCTRDAFKFLSDYACLSAANQMELLFRVGRLDLIRRIFGQTWTPDSCPRYYMPICSPFRCLMALVNDFLSDKEVEEMYFLCAPRLESHLEPGSKKSFLRLASLLEDLELLGGDKLTFLRHLLTTIGRADLVKNLQV", "notes": "mature; also called Flag-E8; E8 FLIP"}, "B3": {"name": "adaptor protein FADD (human) (other, UniProt Q13158 1-208, looked up)", "chain": "MDPFLVLLHSVSSSLSSSELTELKFLCLGRVGKRKLERVQSGLDLFSMLLEQNDLEPGHTELLRELLASLRRHDLLRRVDDFEAGAAAGAAPGEEDLCAAFNVICDNVGKDWRRLARQLKVSDTKIDSIEDRYPRNLTERVRESLRIWKNTEKENATVAHLVGALRSCQMNLVADLVQEVQQARDLQNRSGAMSPMSWNSDASTSEAS", "notes": "also called CAP1"}},
  "key": {"[1]": {"molecular_target": "T1, Flag-marked FLIPP (caspase-homologous C-terminal protein segment of human FLIPL) (human, UniProt O15519 233-480)", "T1 construct": "also called caspase-homologous protein segment of FLIPL", "T1 sequence (O15519 other isoform, or with tags, fused parts or gaps limits assumed)": "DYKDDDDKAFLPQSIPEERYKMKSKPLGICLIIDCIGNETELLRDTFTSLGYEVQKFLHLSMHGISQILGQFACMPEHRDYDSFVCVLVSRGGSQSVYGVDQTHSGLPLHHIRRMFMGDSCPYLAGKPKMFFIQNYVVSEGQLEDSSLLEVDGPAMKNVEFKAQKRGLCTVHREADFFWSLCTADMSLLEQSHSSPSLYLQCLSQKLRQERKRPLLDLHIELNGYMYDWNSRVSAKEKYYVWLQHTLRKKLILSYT", "assay": "anti-Flag immune precipitation, anti-myc Western blot, co-transfected 293T cells (with FADD)"}, "[2]": {"molecular_target": "B3", "assay": "anti-Flag immune precipitation, anti-FADD Western blot, 293T cells"}, "[3]": {"molecular_target": "T2, CD95 (APO-1/Fas) death receptor of human Raji B cells, stimulated with agonistic anti-APO-1 antibody (human, UniProt P25445 26-335)", "T2 construct": "whole, on cells; also called CD95 death receptor; CD95 receptor complex", "T2 sequence": "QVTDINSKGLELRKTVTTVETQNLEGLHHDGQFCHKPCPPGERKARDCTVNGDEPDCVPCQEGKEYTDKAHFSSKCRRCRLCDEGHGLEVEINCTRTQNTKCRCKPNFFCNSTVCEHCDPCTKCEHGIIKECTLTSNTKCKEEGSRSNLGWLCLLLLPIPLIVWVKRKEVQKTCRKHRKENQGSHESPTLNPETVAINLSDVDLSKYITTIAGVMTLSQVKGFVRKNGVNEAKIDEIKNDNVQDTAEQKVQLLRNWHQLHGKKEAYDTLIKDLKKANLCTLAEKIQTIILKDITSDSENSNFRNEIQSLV", "assay": "anti-CD95 (APO-1) immune precipitation from Raji clones, gels"}, "[4]": {"molecular_target": "T3, Flag-marked 159L protein (viral FLIP, ORF 159L of molluscum contagiosum virus, MCV) (molluscum contagiosum virus (MCV), UniProt Q98325 1-241)", "T3 construct": "also called Flag-159L; 159L-FLIP (MCV)", "T3 sequence": "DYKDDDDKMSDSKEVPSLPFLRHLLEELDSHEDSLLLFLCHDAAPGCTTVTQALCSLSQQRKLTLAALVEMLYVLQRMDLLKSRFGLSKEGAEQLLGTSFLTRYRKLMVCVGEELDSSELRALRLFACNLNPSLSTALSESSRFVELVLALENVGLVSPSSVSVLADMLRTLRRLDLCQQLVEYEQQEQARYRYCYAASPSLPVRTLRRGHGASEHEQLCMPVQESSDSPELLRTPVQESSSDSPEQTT", "assay": "co-transfection in 293T cells, anti-Flag immune precipitation, anti-FADD Western blot"}, "[5]": {"molecular_target": "T1, Flag-marked FLIPP (caspase-homologous …)", "assay": "anti-Flag immune precipitation, anti-FADD Western blot, co-transfected 293T cells"}},
  "data": [
    {"binder": "B1", "values": [
      {"measurement": "binding result", "setting": "[1]", "value": "no binding"}
    ]},
    {"binder": "B2", "values": [
      {"measurement": "binding result", "setting": "[2]", "value": "binds"},
      {"measurement": "binding result", "setting": "[3]", "value": "binds"}
    ]},
    {"binder": "B3", "values": [
      {"measurement": "binding result", "setting": "[4]", "value": "binds"},
      {"measurement": "binding result", "setting": "[5]", "value": "no binding"}
    ]}
  ]
}
